Experimental data published in patent US20260209362A1 (VIB VZW, published 2026).

B1: 20373-FcDE (Fc fusion)
VHH-Fc chain: QVQLQESGGGLVQAGGSLVLSCAASGSAALIFLMSWYRQAPGKQRELVAEVSRGGSTTYADSVEGRFTISRDNAKNIVDLQMNSLKPEDTAVYYCKADQNYGDSLRSSWGQGTQVTVSSAPELLGGPDVFLFPPKPKDTLMISRTPEVTCVVVDVSHEDPEVKFNWYVDGVEVHNAKTKPREEQYNSTYRVVSVLTVLHQDWLNGKEYKCKVSNKALPAPEEKTISKAKGQPREPQVYTLPPSRDELTKNQVSLTCLVKGFYPSDIAVEWESNGQPENNYKTTPPVLDSDGSFFLYSKLTVDKSRWQQGNVFSCSVMHEALHNHYTQKSLSLSPGK
B2: 20399-FcDE (Fc fusion)
VHH-Fc chain: QVQLQESGGGLVQPGGSLRLSCAASGSILRINLMGWYRQVPGKQRELVAEMSTGGSTTYVDSVEGRFTISRDNAKNTVYLQMNSLKPEDTAVYYCNAKAWQLGRLENDDWGQGTQVTVSSAPELLGGPDVFLFPPKPKDTLMISRTPEVTCVVVDVSHEDPEVKFNWYVDGVEVHNAKTKPREEQYNSTYRVVSVLTVLHQDWLNGKEYKCKVSNKALPAPEEKTISKAKGQPREPQVYTLPPSRDELTKNQVSLTCLVKGFYPSDIAVEWESNGQPENNYKTTPPVLDSDGSFFLYSKLTVDKSRWQQGNVFSCSVMHEALHNHYTQKSLSLSPGK
B3: 20394-FcDE (Fc fusion)
VHH-Fc chain: QVQLQESGGGLVQAGDSLRLSCAASGRTFDTYIVGWFRQAPGKEREFVSALSWSDDTTIRDDSLRGRFTISRDNAKNTVYLLMNSLKPEDTAVYYCAAKAKPPAATWSSYRNREWYDYWGQGTQVTVSSAPELLGGPDVFLFPPKPKDTLMISRTPEVTCVVVDVSHEDPEVKFNWYVDGVEVHNAKTKPREEQYNSTYRVVSVLTVLHQDWLNGKEYKCKVSNKALPAPEEKTISKAKGQPREPQVYTLPPSRDELTKNQVSLTCLVKGFYPSDIAVEWESNGQPENNYKTTPPVLDSDGSFFLYSKLTVDKSRWQQGNVFSCSVMHEALHNHYTQKSLSLSPGK
B4: 20400-FcDE (Fc fusion)
VHH-Fc chain: QVQLQESGGGLVQPGGSLRLSCAASGRTINAYIMGWFRQAPGKEREFVAAVSGSGGSTYYADSVKGRFTISRDNAKNTVNLQMDNLRSEDTDVYYCAATYESVYLQNPGQYDYWGQGTQVTVSSAPELLGGPDVFLFPPKPKDTLMISRTPEVTCVVVDVSHEDPEVKFNWYVDGVEVHNAKTKPREEQYNSTYRVVSVLTVLHQDWLNGKEYKCKVSNKALPAPEEKTISKAKGQPREPQVYTLPPSRDELTKNQVSLTCLVKGFYPSDIAVEWESNGQPENNYKTTPPVLDSDGSFFLYSKLTVDKSRWQQGNVFSCSVMHEALHNHYTQKSLSLSPGK
B5: 20421-FcDE (Fc fusion)
VHH-Fc chain: QVQLQESGGGLVQPGGSLRLSCAASGFTFSTYAMSWVRQAPGKGLEWVSAVNSGGLSTDYADSVEGRFTISRDDAKNMLFLQMNRLKPEDTARYYCAKYEDCSDYVCDRAGYWGQGTQVTVSSAPELLGGPDVFLFPPKPKDTLMISRTPEVTCVVVDVSHEDPEVKFNWYVDGVEVHNAKTKPREEQYNSTYRVVSVLTVLHQDWLNGKEYKCKVSNKALPAPEEKTISKAKGQPREPQVYTLPPSRDELTKNQVSLTCLVKGFYPSDIAVEWESNGQPENNYKTTPPVLDSDGSFFLYSKLTVDKSRWQQGNVFSCSVMHEALHNHYTQKSLSLSPGK
B6: 20372-FcDE (Fc fusion)
VHH-Fc chain: QVQLQESGGGLVQAGGSLRLSCAASARTESMYAMAWFRQAPGKEREIVAGIIQSGGTTYISDYMKGRFSIDRGNAENTVYLQMDSLKPEDTAVYSCAAKVSSGTPSDIQISQSRWYDHWGQGTQVTVSSAPELLGGPDVFLFPPKPKDTLMISRTPEVTCVVVDVSHEDPEVKFNWYVDGVEVHNAKTKPREEQYNSTYRVVSVLTVLHQDWLNGKEYKCKVSNKALPAPEEKTISKAKGQPREPQVYTLPPSRDELTKNQVSLTCLVKGFYPSDIAVEWESNGQPENNYKTTPPVLDSDGSFFLYSKLTVDKSRWQQGNVFSCSVMHEALHNHYTQKSLSLSPGK
B7: 20415-FcDE (Fc fusion)
VHH-Fc chain: QVQLQESGGGLVQPGGSLRLSCTASGSIVSIYNMDWYRQAPGNEREWVASITSSGDPYYDGSAKGRFTISRDNAKMTVYLQMNSLKPEDTAVYYCKVPTEKGNYWGQGTQVTVSSAPELLGGPDVFLFPPKPKDTLMISRTPEVTCVVVDVSHEDPEVKFNWYVDGVEVHNAKTKPREEQYNSTYRVVSVLTVLHQDWLNGKEYKCKVSNKALPAPEEKTISKAKGQPREPQVYTLPPSRDELTKNQVSLTCLVKGFYPSDIAVEWESNGQPENNYKTTPPVLDSDGSFFLYSKLTVDKSRWQQGNVFSCSVMHEALHNHYTQKSLSLSPGK
B8: 20378-FcDE (Fc fusion)
VHH-Fc chain: QVQLQESGGGLVQAGDSLRLSCTASGHTFSRYTTIGWFRQAPGKDREFVAAIRWSGDITDYADAVKGRFTISRDNVKNTVYLQMNSLNPEDTAVYYCARGYSEYGVLSRNRGLYAYWGQGTQVTVSSAPELLGGPDVFLFPPKPKDTLMISRTPEVTCVVVDVSHEDPEVKFNWYVDGVEVHNAKTKPREEQYNSTYRVVSVLTVLHQDWLNGKEYKCKVSNKALPAPEEKTISKAKGQPREPQVYTLPPSRDELTKNQVSLTCLVKGFYPSDIAVEWESNGQPENNYKTTPPVLDSDGSFFLYSKLTVDKSRWQQGNVFSCSVMHEALHNHYTQKSLSLSPGK
B9: 20401-FcDE (Fc fusion)
VHH-Fc chain: QVQLQESGGGLVQAGESLTLSCIASGVIKDYAMGWFRQAPGKEREFVAAISWSGVSIYYADSVKGRFTISRDNAKNTVYLQMNSLEPEDTAVYYCAGTEGAYTVAGGSTFGYDMDYWGKGTQVTVSSAPELLGGPDVFLFPPKPKDTLMISRTPEVTCVVVDVSHEDPEVKFNWYVDGVEVHNAKTKPREEQYNSTYRVVSVLTVLHQDWLNGKEYKCKVSNKALPAPEEKTISKAKGQPREPQVYTLPPSRDELTKNQVSLTCLVKGFYPSDIAVEWESNGQPENNYKTTPPVLDSDGSFFLYSKLTVDKSRWQQGNVFSCSVMHEALHNHYTQKSLSLSPGK
B10: anti-IL-12Rβ2-VHH-FcDE clone 20407 (Fc fusion)
chain: QVQLQESGGGLVQPGGSLRLTCVASGFPFSTHAMSWVRQPPGKGREWISAINSGGDSTDYADSVMGRFTISRDNAKNTVYLQMNSLKSEDTAAYYCAKYEDCSDYDCSSRASWGQGTQVTVSSAPELLGGPDVFLFPPKPKDTLMISRTPEVTCVVVDVSHEDPEVKFNWYVDGVEVHNAKTKPREEQYNSTYRVVSVLTVLHQDWLNGKEYKCKVSNKALPAPEEKTISKAKGQPREPQVYTLPPSRDELTKNQVSLTCLVKGFYPSDIAVEWESNGQPENNYKTTPPVLDSDGSFFLYSKLTVDKSRWQQGNVFSCSVMHEALHNHYTQKSLSLSPGK

Molecular target: T1, human IL-12Rβ2 expressed on cells (human, UniProt Q99665 24-862)
T1 sequence: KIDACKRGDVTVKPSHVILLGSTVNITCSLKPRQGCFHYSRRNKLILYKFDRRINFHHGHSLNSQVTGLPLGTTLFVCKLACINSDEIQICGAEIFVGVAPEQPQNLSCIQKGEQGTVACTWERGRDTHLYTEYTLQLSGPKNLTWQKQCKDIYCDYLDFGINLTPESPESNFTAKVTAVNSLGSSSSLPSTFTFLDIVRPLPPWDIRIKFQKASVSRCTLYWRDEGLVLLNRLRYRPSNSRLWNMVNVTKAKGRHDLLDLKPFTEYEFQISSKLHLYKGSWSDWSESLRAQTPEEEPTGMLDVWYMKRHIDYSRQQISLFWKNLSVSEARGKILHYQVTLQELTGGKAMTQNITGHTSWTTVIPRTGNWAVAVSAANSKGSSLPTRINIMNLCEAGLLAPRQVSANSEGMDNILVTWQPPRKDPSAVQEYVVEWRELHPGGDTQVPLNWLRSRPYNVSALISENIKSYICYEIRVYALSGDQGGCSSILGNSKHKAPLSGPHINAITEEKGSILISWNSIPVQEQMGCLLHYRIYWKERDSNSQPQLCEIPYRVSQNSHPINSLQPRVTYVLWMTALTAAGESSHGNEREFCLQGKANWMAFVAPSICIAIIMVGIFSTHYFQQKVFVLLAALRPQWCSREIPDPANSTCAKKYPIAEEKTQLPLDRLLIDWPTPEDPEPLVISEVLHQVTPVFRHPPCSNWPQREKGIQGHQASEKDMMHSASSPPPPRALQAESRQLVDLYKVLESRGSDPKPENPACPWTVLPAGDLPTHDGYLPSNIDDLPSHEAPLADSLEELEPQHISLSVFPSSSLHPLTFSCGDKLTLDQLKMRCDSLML
Assay: cell-based or functional assay

Row | Binder | % Specific Cell Lysis at 0.00125 ug/mL | % Specific Cell Lysis at 0.025 ug/mL | % Specific Cell Lysis at 0.5 ug/mL | % Specific Cell Lysis at 10 ug/mL
1 | B1 | 48.9% | 61.1% | 67.4% | 70.7%
2 | B2 | 61% | 63.1% | 67.1% | 72.4%
3 | B3 | 54% | 52.1% | – | 66%
4 | B4 | 45.4% | 47.6% | – | –
5 | B5 | 61.3% | 65.9% | 67.7% | 69%
6 | B6 | 51.1% | – | 66.9% | 69.9%
7 | B7 | 52.8% | 61.1% | 68.8% | 77.9%
8 | B8 | 52.4% | – | – | –
9 | B9 | 48% | 47.5% | – | 64.9%
10 | B10 | 63.3% | 66.5% | 71.7% | 66.2%
